By stoichiometry N is commonly meant a count of units in the complex or per binding partner.

The text below walks through data of paper PMC8115922 (Science Advances, 2021).

In one data set the target is T1, SAMD1-WH(27-105) (Homo sapiens, UniProt Q6SPF0 27-105).
T1 sequence: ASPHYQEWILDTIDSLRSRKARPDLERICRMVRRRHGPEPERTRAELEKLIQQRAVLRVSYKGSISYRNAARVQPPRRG
Kind of data set: X-ray crystallography.

The data set “SEC + native MS” deals with the molecule itself. As to the kind of experiment: SEC + native MS.

B1: 13-bp CpG DNA (dsDNA)
DNA 1: ACCTGCGCACCAT
DNA 2: ATGGTGCGCAGGT
On to B1, for which the binding result with SAMD1-WH(27-105) was “binds”.

B2: WT SAMD1-SAM (construct of the solution experiments not stated) (domain or fragment, human, UniProt Q6SPF0 462-530, looked up)
chain: WTVMDVVEYFTEAGFPEQATAFQEQEIDGKSLLLMQRTDVLTGLSIRLGPALKIYEHHIKVLQQGHFED
For B2, the “stoichiometry N” value in the data set “SEC + native MS” is 5.
